# Test results from patent EP4703474A1, “ANTI-LRRC15 ANTIBODY” (priority 2023, dated 2024).
# B1: H02L01-V1-PBD (conjugate)
# heavy: EVQLVESGGGLVQPGGSLRLSCAASGFTFRDYYMAWVRQAPGKGLEWVSSIGFDESRTYYADSVKGRFTISRDDSKNTLYLQMNSLRAEDTAVYYCARHGVSKYSGDNWFAYWGQGTLVTVSSASTKGPSVFPLAPSSKSTSGGTAALGCLVKDYFPEPVTVSWNSGALTSGVHTFPAVLQSSGLYSLSSVVTVPSSSLGTQTYICNVNHKPSNTKVDKKVEPKSCDKTHTCPPCPAPEAAGGPSVFLFPPKPKDTLMISRTPEVTCVVVDVSHEDPEVKFNWYVDGVEVHNAKTKPREEQYNSTYRVVSVLTVLHQDWLNGKEYKCKVSNKALAAPIEKTISKAKGQPREPQVYTLPPSREEMTKNQVSLTCLVKGFYPSDIAVEWESNGQPENNYKTTPPVLDSDGSFFLYSKLTVDKSRWQQGNVFSCSVMHEALHNHYTQKSLSLSPGK
# light: DIQMTQSPSSLSASVGDRVTITCKSSQGLLYSGDQKNYLAWYQQKPGKAPKLLIYWASTRQSGVPSRFSGSGSGTDFTLTISSLQPEDFATYYCQQYYDPPYTFGQGTKVEIKRTVAAPSVFIFPPSDEQLKSGTASVVCLLNNFYPREAKVQWKVDNALQSGNSQESVTEQDSKDSTYSLSSTLTLSKADYEKHKVYACEVTHQGLSSPVTKSFNRGEC
# Columns and labels:
# [1] = system: HER2-positive breast carcinoma cell line SUM190PT; assay: In vivo antitumor effect, SUM190PT subcutaneous transplant model; conditions: 0.4 mg/kg, tail vein, on Day 32, female SCID mice
# Procedure: (§1) The antitumor effects of the antibody-drug conjugates were evaluated by using animal models in which cells of a human tumor cell line had been transplanted into immunodeficient mice, or cells of a mouse tumor cell line had been transplanted into immunocompetent mice. 4 to 6 Week-old SCID mice (CB17/Icr-Prkdc[scid]/CrlCrlj, Jackson Laboratory Japan, Inc.), NSG mice (NOD.Cg-Prkdcscid Il2rgtm1Wjl/SzJ, Jackson Laboratory Japan, Inc.), or B6J mice (C57BL/6J, Jackson Laboratory Japan, Inc.) were habituated for 3 days or more under SPF conditions before experimental use. The mice were fed with sterilized solid feed and given sterilized tap water. The major and minor diameters of the transplanted tumors were measured twice a week with an electronic digital caliper (Mitutoyo Corporation), and the estimated tumor volume was calculated using the following formula. Estimated tumor volume (mm^3) = 1/2 × major diameter (mm) × [minor diameter (mm)]^2 All antibody-drug conjugates were diluted with ABS and administered into the tail vein at doses shown in each Example. In addition, ABS (vehicle) or control hIgG-PBD prepared in Reference Example 4 was administered as the control group, in a similar manner. 5 to 6 Mice were used per group in the experiment. […]
# [2] = system: Pancreatic carcinoma cell line BxPC-3 and human adipose tissue-derived mesenchymal stem cells; assay: In vivo antitumor effect, BxPC-3 co-transplanted with mesenchymal stem cells; conditions: BxPC-3 and MSC at 1:3; 0.4 mg/kg, tail vein, on Day 27; female SCID mice
# Procedure: as §1, with “experiment. To analyze the LRRC15 expression in mouse tumor models, immunohistochemical staining of LRRC15 was performed.” for “experiment.”
# [3] = system: Gastric carcinoma cell line Caki-1; assay: In vivo antitumor effect, Caki-1 subcutaneous transplant model; conditions: 0.4 mg/kg, tail vein, on Day 21, female SCID mice
# Procedure: as §1, with “experiment. To analyze the LRRC15 expression in mouse tumor models, immunohistochemical staining of LRRC15 was performed.” for “experiment.”
molecule,measurement,setting,value
B1,antitumor effect (estimated tumor volume),[1],antitumor activity higher than that of the vehicle and control hIgG-PBD
same,antitumor effect (estimated tumor volume),[2],antitumor activity higher than that of the vehicle and control hIgG-PBD
same,antitumor effect (estimated tumor volume),[3],antitumor activity higher than that of the vehicle and control hIgG-PBD
